Data on 91 sequences can be found in the supplement of paper PMC9112550, “Optimization of the antimicrobial peptide Bac7 by deep mutational scanning” (BMC Biology, 2022).

The data set concerns Escherichia coli TOP10. Kind of data set: shrunken log2 fold change of peptide-encoding DNA abundance (4.5 h post-induction vs induction); higher = less antimicrobial activity (less host growth inhibition). The conditions noted are these: time post-induction: 4.5 h; library: site-saturation at positions 5, 18, 19, 20.
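Note: peptides expressed intracellularly from a pBAD plasmid library in pooled LB shake-flask culture, induced with 0.3% L-arabinose, DNA abundance read by NGS, three biological replicates, DESeq2 with apeglm shrinkage.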

Regarding RRIRQRPPRLPRPRPRPHFAPRP, the “shrunken log2 fold change” value amounted to 0.0503.

Regarding RRIRQRPPRLPRPRPRPKKGPRP, the “shrunken log2 fold change” value is 0.124.

Take RRIRQRPPRLPRPRPRPQHWPRP: the “shrunken log2 fold change” value was 0.0488.

For the sequence RRIRNRPPRLPRPRPRPTQWPRP, the “shrunken log2 fold change” value amounted to 0.425.

RRIRFRPPRLPRPRPRPEHAPRP: the “shrunken log2 fold change” value is 0.243.

Regarding RRIRIRPPRLPRPRPRPTRYPRP, the “shrunken log2 fold change” value was -0.328.

In the case of RRIRLRPPRLPRPRPRPFWWPRP, the “shrunken log2 fold change” value came out at 0.483.

For the sequence RRIRRRPPRLPRPRPRPVMNPRP, the “shrunken log2 fold change” value came out at 0.0331.

For the sequence RRIRPRPPRLPRPRPRPIHLPRP, the “shrunken log2 fold change” value was -0.146.

As to RRIRVRPPRLPRPRPRPWGLPRP, the “shrunken log2 fold change” value is -0.159.

As to RRIRIRPPRLPRPRPRPINQPRP, the “shrunken log2 fold change” value was -0.345.

RRIRHRPPRLPRPRPRPFNYPRP: the “shrunken log2 fold change” value is 0.0485.

As for RRIRDRPPRLPRPRPRPEQLPRP, the “shrunken log2 fold change” value was 0.104.

Take RRIRGRPPRLPRPRPRPFLCPRP: the “shrunken log2 fold change” value was 0.231.

Take RRIRTRPPRLPRPRPRPPFAPRP: the “shrunken log2 fold change” value amounted to 0.195.

With RRIRSRPPRLPRPRPRPKHHPRP, the “shrunken log2 fold change” value is -0.387.

RRIRDRPPRLPRPRPRPSIYPRP: the “shrunken log2 fold change” value is -0.313.

On to RRIRARPPRLPRPRPRPACHPRP, for which the “shrunken log2 fold change” value is 0.371.

RRIRARPPRLPRPRPRPVKWPRP: the “shrunken log2 fold change” value turned out to be 3.06.

Regarding RRIRWRPPRLPRPRPRPHSDPRP, the “shrunken log2 fold change” value worked out at 0.0062.

As for RRIRLRPPRLPRPRPRPGMPPRP, the “shrunken log2 fold change” value was -0.15.

As for RRIRERPPRLPRPRPRPYAFPRP, the “shrunken log2 fold change” value is -0.961.

On to RRIRCRPPRLPRPRPRPSQEPRP, for which the “shrunken log2 fold change” value stood at 0.0585.

With RRIRIRPPRLPRPRPRPHRNPRP, the “shrunken log2 fold change” value was -0.846.

As to RRIRLRPPRLPRPRPRPSRAPRP, the “shrunken log2 fold change” value amounted to 0.0241.

With RRIRSRPPRLPRPRPRPEYLPRP, the “shrunken log2 fold change” value is -0.0519.

For RRIRARPPRLPRPRPRPTRKPRP, the “shrunken log2 fold change” value came to 0.574.

For RRIRCRPPRLPRPRPRPRRNPRP, the “shrunken log2 fold change” value was -0.0367.

For the sequence RRIRPRPPRLPRPRPRPCKCPRP, the “shrunken log2 fold change” value is -0.275.

Consider RRIRIRPPRLPRPRPRPAAQPRP, for which the “shrunken log2 fold change” value amounted to 0.14.

Turning to RRIRKRPPRLPRPRPRPNCSPRP, the “shrunken log2 fold change” value was 0.149.

Turning to RRIRSRPPRLPRPRPRPCTGPRP, the “shrunken log2 fold change” value was -0.0404.

On to RRIRKRPPRLPRPRPRPLDRPRP, for which the “shrunken log2 fold change” value was -0.0461.

Consider RRIRRRPPRLPRPRPRPHQNPRP, for which the “shrunken log2 fold change” value turned out to be 0.769.

Turning to RRIRIRPPRLPRPRPRPLTEPRP, the “shrunken log2 fold change” value is -0.044.

Turning to RRIRVRPPRLPRPRPRPQPQPRP, the “shrunken log2 fold change” value amounted to 0.302.

For RRIRTRPPRLPRPRPRPQQYPRP, the “shrunken log2 fold change” value is -0.0717.

As to RRIRARPPRLPRPRPRPWCLPRP, the “shrunken log2 fold change” value is -0.214.

On to RRIRFRPPRLPRPRPRPWNCPRP, for which the “shrunken log2 fold change” value is -0.0434.

RRIRKRPPRLPRPRPRPGLKPRP: the “shrunken log2 fold change” value was 0.377.

As to RRIRKRPPRLPRPRPRPRRLPRP, the “shrunken log2 fold change” value turned out to be 0.0159.

For RRIRQRPPRLPRPRPRPNAHPRP, the “shrunken log2 fold change” value was -0.18.

With RRIRGRPPRLPRPRPRPVSKPRP, the “shrunken log2 fold change” value amounted to 0.276.

As for RRIRVRPPRLPRPRPRPDLMPRP, the “shrunken log2 fold change” value is -0.00839.

In the case of RRIRVRPPRLPRPRPRPNTQPRP, the “shrunken log2 fold change” value was -0.0658.

RRIRSRPPRLPRPRPRPTRHPRP: the “shrunken log2 fold change” value amounted to 0.227.

In the case of RRIRIRPPRLPRPRPRPSIRPRP, the “shrunken log2 fold change” value was -0.212.

As for RRIRWRPPRLPRPRPRPCEHPRP, the “shrunken log2 fold change” value was 0.0123.

For the sequence RRIRCRPPRLPRPRPRPVTPPRP, the “shrunken log2 fold change” value came to 0.23.

For RRIRPRPPRLPRPRPRPSTGPRP, the “shrunken log2 fold change” value is -0.263.

In the case of RRIRCRPPRLPRPRPRPMKTPRP, the “shrunken log2 fold change” value is -0.11.

In the case of RRIRKRPPRLPRPRPRPKHIPRP, the “shrunken log2 fold change” value was -0.0252.

For the sequence RRIRGRPPRLPRPRPRPAVSPRP, the “shrunken log2 fold change” value was 0.573.

In the case of RRIRTRPPRLPRPRPRPNKPPRP, the “shrunken log2 fold change” value is -0.0031.

Consider RRIRLRPPRLPRPRPRPKHWPRP, for which the “shrunken log2 fold change” value was determined as 0.31.

Turning to RRIRERPPRLPRPRPRPLSHPRP, the “shrunken log2 fold change” value is -0.314.

For RRIRKRPPRLPRPRPRPHMNPRP, the “shrunken log2 fold change” value is -0.295.

Regarding RRIRLRPPRLPRPRPRPEMQPRP, the “shrunken log2 fold change” value stood at 0.0197.

As to RRIRGRPPRLPRPRPRPFIGPRP, the “shrunken log2 fold change” value was -0.258.

For RRIRSRPPRLPRPRPRPIGEPRP, the “shrunken log2 fold change” value was -0.017.

With RRIRNRPPRLPRPRPRPVFSPRP, the “shrunken log2 fold change” value was -0.192.

As for RRIRARPPRLPRPRPRPEKYPRP, the “shrunken log2 fold change” value was 0.101.

In the case of RRIRKRPPRLPRPRPRPRVRPRP, the “shrunken log2 fold change” value was 0.755.

RRIRIRPPRLPRPRPRPGRYPRP: the “shrunken log2 fold change” value is -0.0696.

For RRIRKRPPRLPRPRPRPQTQPRP, the “shrunken log2 fold change” value was determined as 0.26.

For the sequence RRIRDRPPRLPRPRPRPWRRPRP, the “shrunken log2 fold change” value came to 0.0906.

As to RRIRTRPPRLPRPRPRPCRQPRP, the “shrunken log2 fold change” value was -0.303.

Take RRIRTRPPRLPRPRPRPKCHPRP: the “shrunken log2 fold change” value is -0.0989.

On to RRIRFRPPRLPRPRPRPKPEPRP, for which the “shrunken log2 fold change” value was found to be 0.37.

In the case of RRIRSRPPRLPRPRPRPMMPPRP, the “shrunken log2 fold change” value was -0.0787.

On to RRIRLRPPRLPRPRPRPIHYPRP, for which the “shrunken log2 fold change” value is -0.186.

On to RRIRNRPPRLPRPRPRPMMDPRP, for which the “shrunken log2 fold change” value was -0.425.

For RRIRMRPPRLPRPRPRPTFLPRP, the “shrunken log2 fold change” value is -0.319.

Take RRIRYRPPRLPRPRPRPQRCPRP: the “shrunken log2 fold change” value is -0.0766.

For RRIRHRPPRLPRPRPRPQYCPRP, the “shrunken log2 fold change” value is -0.00186.

Regarding RRIRNRPPRLPRPRPRPGCQPRP, the “shrunken log2 fold change” value was -0.108.

As for RRIRYRPPRLPRPRPRPCQGPRP, the “shrunken log2 fold change” value was -0.0126.

Turning to RRIRTRPPRLPRPRPRPWHVPRP, the “shrunken log2 fold change” value came to 0.0162.

Consider RRIRWRPPRLPRPRPRPRQAPRP, for which the “shrunken log2 fold change” value amounted to 0.475.

Consider RRIRARPPRLPRPRPRPDYLPRP, for which the “shrunken log2 fold change” value is -0.805.

With RRIRHRPPRLPRPRPRPNDAPRP, the “shrunken log2 fold change” value was -0.2.

With RRIRKRPPRLPRPRPRPQMNPRP, the “shrunken log2 fold change” value is 0.104.

In the case of RRIRDRPPRLPRPRPRPLVCPRP, the “shrunken log2 fold change” value is 0.22.

As for RRIRHRPPRLPRPRPRPLMIPRP, the “shrunken log2 fold change” value is -0.498.

For the sequence RRIRNRPPRLPRPRPRPVACPRP, the “shrunken log2 fold change” value is -0.0504.

With RRIRARPPRLPRPRPRPFTIPRP, the “shrunken log2 fold change” value was -0.142.

With RRIRERPPRLPRPRPRPIYVPRP, the “shrunken log2 fold change” value is -1.09.

For the sequence RRIRTRPPRLPRPRPRPHEKPRP, the “shrunken log2 fold change” value is -0.0018.

With RRIRIRPPRLPRPRPRPPSIPRP, the “shrunken log2 fold change” value turned out to be 0.122.

Regarding RRIRKRPPRLPRPRPRPNDPPRP, the “shrunken log2 fold change” value is -0.0515.

As for RRIRDRPPRLPRPRPRPLLMPRP, the “shrunken log2 fold change” value worked out at 0.359.
